T1: I52-33B
T1 construct: also called dimer component of I52-33
T1 chain: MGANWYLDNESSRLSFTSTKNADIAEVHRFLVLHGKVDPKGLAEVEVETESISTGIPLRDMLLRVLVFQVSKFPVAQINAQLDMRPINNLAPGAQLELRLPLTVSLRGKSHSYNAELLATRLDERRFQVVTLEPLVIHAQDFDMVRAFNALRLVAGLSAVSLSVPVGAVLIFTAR

B1: I52-33A (designed binder)
chain: MAVKGLGEVDQKYDGSKLRIGILHARWNRKIILALVAGAVLRLLEFGVKAENIIIETVPGSFELPYGSKLFVEKQKRLGKPLDAIIPIGVLIKGSTMHFEYICDSTTHQLMKLNFELGIPVIFGVLTCLTDEQAEARAGLIEGKMHNHGEDWGAAAVEMATKFN
notes: also called pentamer component of I52-33
B2: I32-06A (designed binder)
chain: MTDYIRDGSAIKALSFAIILAEADLRHIPQDLQRLAVRVIHACGMVDVANDLAFSEGAGKAGRNALLAGAPILCDARMVAEGITRSRLPADNRVIYTLSDPSVPELAKKIGNTRSAAALDLWLPHIEGSIVAIGNAPTALFRLFELLDAGAPKPALIIGMPVGFVGAAESKDELAANSRGVPYVIVRGRRGGSAMTAAAVNALASERE
notes: also called dimer component of I32-06

Key:
I52-33B = biological target: T1, I52-33B; test: size exclusion chromatography (Superose 6 10/300) of co-expressed, purified pair
I32-06B = biological target: T2, I32-06B; test: negative stain electron microscopy class averages of the assembled nanostructure
T2 construct: also called trimer component of I32-06
T2 sequence (chain, as listed by the source): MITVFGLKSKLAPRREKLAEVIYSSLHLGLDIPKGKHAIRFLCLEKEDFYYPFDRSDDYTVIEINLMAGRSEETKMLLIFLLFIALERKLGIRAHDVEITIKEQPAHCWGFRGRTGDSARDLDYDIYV

| Binder | binding result (I52-33B) | binding result (I32-06B) |
| --- | --- | --- |
| B1 | binds |  |
| B2 |  | binds |

— patent US20190284242A1 (University of Washington, published 2019)
